Measurements reported in patent US20110105394A1 (Novo Nordisk, published 2011).
*1 amine or outer side, *2 acyl side, *3 side chain or, on linkers, in order; H or OH if unused. Bridges are numbered along the chain shown (N, C = ends). Where no end group is shown, it is not given here. Side-chain parts run from the residue outwards. The star is where a group is joined. X2 = (S)‑4‑Carboxy‑4‑(19-carboxynonadecanoylamino)butyryl, O=C(O)CCCCCCCCCCCCCCCCCCC(=O)N[C@@H](CCC(=O)*)C(=O)O; C20 diacid = O=C(O)CCCCCCCCCCCCCCCCCCC(=O)*; γGlu = O=C(O)[C@H](CCC(=O)[*:2])N[*:1]; AEEA = NCCOCCOCC(=O)O

T1: Amylin 3(a) receptor (human calcitonin receptor (CTa) with RAMP-3) (human, UniProt P30988 25-474; O60896 24-148, limits assumed)
T1 sequence (looked up) 1: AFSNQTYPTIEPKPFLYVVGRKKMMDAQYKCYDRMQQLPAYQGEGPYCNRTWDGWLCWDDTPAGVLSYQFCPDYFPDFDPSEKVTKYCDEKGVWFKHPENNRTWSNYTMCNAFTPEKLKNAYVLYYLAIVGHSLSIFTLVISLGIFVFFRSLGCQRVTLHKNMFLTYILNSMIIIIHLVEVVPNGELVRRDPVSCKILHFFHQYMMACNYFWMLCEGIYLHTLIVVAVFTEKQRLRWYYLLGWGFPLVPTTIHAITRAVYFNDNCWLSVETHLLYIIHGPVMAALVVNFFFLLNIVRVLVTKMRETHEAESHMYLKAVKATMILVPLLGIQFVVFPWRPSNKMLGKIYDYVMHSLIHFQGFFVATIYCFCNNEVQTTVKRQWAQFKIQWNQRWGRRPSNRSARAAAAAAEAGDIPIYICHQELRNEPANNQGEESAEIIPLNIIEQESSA
T1 sequence (looked up) 2: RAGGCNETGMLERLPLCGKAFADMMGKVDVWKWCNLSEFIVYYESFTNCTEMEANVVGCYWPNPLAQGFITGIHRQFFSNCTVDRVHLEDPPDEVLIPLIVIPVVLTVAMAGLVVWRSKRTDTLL


Biological target: T1, Amylin 3(a) receptor (human calcitonin …)
Experiment: cell-based or functional assay

Row | Binder | Potency Luciferase [pM]
1 | KCK([Glu-Arg-Glu-Glu-C20 diacid])TATCATQRLANFLHHSSDNFGPILPPTNVGSNTY-NH2 (disulfide 2-7) [N-epsilon3-(19-carboxynonadecanoyl-Glu-Glu-Arg-Glu)-[Lys3,His17,Asp21]-pramlintide] | 900
2 | X2-RKCNTATCATQRLANFLAHSSNNFGPILPPTNVGSNTY-NH2 (disulfide 3-8; SMILES CC[C@H](C)[C@H](NC(=O)[C@@H]1CCCN1C(=O)CNC(=O)[C@H](Cc1ccccc1)NC(=O)[C@H](CC(N)=O)NC(=O)[C@H](CC(N)=O)NC(=O)[C@H](CO)NC(=O)[C@H](CO)NC(=O)[C@H](Cc1c[nH]cn1)NC(=O)[C@H](C)NC(=O)[C@H](CC(C)C)NC(=O)[C@H](Cc1ccccc1)NC(=O)[C@H](CC(N)=O)NC(=O)[C@H](C)NC(=O)[C@H](CC(C)C)NC(=O)[C@H](CCCNC(=N)N)NC(=O)[C@H](CCC(N)=O)NC(=O)[C@@H](NC(=O)[C@H](C)NC(=O)[C@@H]1CSSC[C@H](NC(=O)[C@H](CCCCN)NC(=O)[C@H](CCCNC(=N)N)NC(=O)CC[C@H](NC(=O)CCCCCCCCCCCCCCCCCCC(=O)O)C(=O)O)C(=O)N[C@@H](CC(N)=O)C(=O)N[C@@H]([C@@H](C)O)C(=O)N[C@@H](C)C(=O)N[C@@H]([C@@H](C)O)C(=O)N1)[C@@H](C)O)C(=O)N[C@@H](CC(C)C)C(=O)N1CCC[C@H]1C(=O)N1CCC[C@H]1C(=O)N[C@H](C(=O)N[C@@H](CC(N)=O)C(=O)N[C@H](C(=O)NCC(=O)N[C@@H](CO)C(=O)N[C@@H](CC(N)=O)C(=O)N[C@H](C(=O)N[C@@H](Cc1ccc(O)cc1)C(N)=O)[C@@H](C)O)C(C)C)[C@@H](C)O) [N-alpha-[(S)-4-Carboxy-4-(19-carboxynonadecanoylamino)butyryl]-Arg-[Ala17]-pramlintide] | 100
3 | X2-RKCNTATCATQRLANFLSHSSNNFGPILPPTNVGSNTY-NH2 (disulfide 3-8; SMILES CC[C@H](C)[C@H](NC(=O)[C@@H]1CCCN1C(=O)CNC(=O)[C@H](Cc1ccccc1)NC(=O)[C@H](CC(N)=O)NC(=O)[C@H](CC(N)=O)NC(=O)[C@H](CO)NC(=O)[C@H](CO)NC(=O)[C@H](Cc1c[nH]cn1)NC(=O)[C@H](CO)NC(=O)[C@H](CC(C)C)NC(=O)[C@H](Cc1ccccc1)NC(=O)[C@H](CC(N)=O)NC(=O)[C@H](C)NC(=O)[C@H](CC(C)C)NC(=O)[C@H](CCCNC(=N)N)NC(=O)[C@H](CCC(N)=O)NC(=O)[C@@H](NC(=O)[C@H](C)NC(=O)[C@@H]1CSSC[C@H](NC(=O)[C@H](CCCCN)NC(=O)[C@H](CCCNC(=N)N)NC(=O)CC[C@H](NC(=O)CCCCCCCCCCCCCCCCCCC(=O)O)C(=O)O)C(=O)N[C@@H](CC(N)=O)C(=O)N[C@@H]([C@@H](C)O)C(=O)N[C@@H](C)C(=O)N[C@@H]([C@@H](C)O)C(=O)N1)[C@@H](C)O)C(=O)N[C@@H](CC(C)C)C(=O)N1CCC[C@H]1C(=O)N1CCC[C@H]1C(=O)N[C@H](C(=O)N[C@@H](CC(N)=O)C(=O)N[C@H](C(=O)NCC(=O)N[C@@H](CO)C(=O)N[C@@H](CC(N)=O)C(=O)N[C@H](C(=O)N[C@@H](Cc1ccc(O)cc1)C(N)=O)[C@@H](C)O)C(C)C)[C@@H](C)O) [N-alpha-[(S)-4-Carboxy-4-(19-carboxynonadecanoylamino)butyryl]-Arg-[Ser17]-pramlintide] | 100

Next, values leading:

Row | Potency Luciferase [pM] | Binder
4 | 100 | X2-RKCNTATCATQRLANFLRHSSNNFGPILPPTNVGSNTY-NH2 (disulfide 3-8; SMILES CC[C@H](C)[C@H](NC(=O)[C@@H]1CCCN1C(=O)CNC(=O)[C@H](Cc1ccccc1)NC(=O)[C@H](CC(N)=O)NC(=O)[C@H](CC(N)=O)NC(=O)[C@H](CO)NC(=O)[C@H](CO)NC(=O)[C@H](Cc1c[nH]cn1)NC(=O)[C@H](CCCNC(=N)N)NC(=O)[C@H](CC(C)C)NC(=O)[C@H](Cc1ccccc1)NC(=O)[C@H](CC(N)=O)NC(=O)[C@H](C)NC(=O)[C@H](CC(C)C)NC(=O)[C@H](CCCNC(=N)N)NC(=O)[C@H](CCC(N)=O)NC(=O)[C@@H](NC(=O)[C@H](C)NC(=O)[C@@H]1CSSC[C@H](NC(=O)[C@H](CCCCN)NC(=O)[C@H](CCCNC(=N)N)NC(=O)CC[C@H](NC(=O)CCCCCCCCCCCCCCCCCCC(=O)O)C(=O)O)C(=O)N[C@@H](CC(N)=O)C(=O)N[C@@H]([C@@H](C)O)C(=O)N[C@@H](C)C(=O)N[C@@H]([C@@H](C)O)C(=O)N1)[C@@H](C)O)C(=O)N[C@@H](CC(C)C)C(=O)N1CCC[C@H]1C(=O)N1CCC[C@H]1C(=O)N[C@H](C(=O)N[C@@H](CC(N)=O)C(=O)N[C@H](C(=O)NCC(=O)N[C@@H](CO)C(=O)N[C@@H](CC(N)=O)C(=O)N[C@H](C(=O)N[C@@H](Cc1ccc(O)cc1)C(N)=O)[C@@H](C)O)C(C)C)[C@@H](C)O) [N-alpha-[(S)-4-Carboxy-4-(19-carboxynonadecanoylamino)butyryl]-Arg-[Arg17]-pramlintide]
5 | 30 | {C20 diacid-4‑aminobutyryl}-RKCNTATCATQRLANFLRHSSNNFGPILPPTNVGSNTY-NH2 (disulfide 3-8) [N-alpha-[4-(19-Carboxynonadecanoylamino)butyryl]-Arg-[Arg17]-pramlintide]
6 | 2000 | X2-RKCNTATCATQRLANFLPHSSNNFGPILPPTNVGSNTY-NH2 (disulfide 3-8; SMILES CC[C@H](C)[C@H](NC(=O)[C@@H]1CCCN1C(=O)CNC(=O)[C@H](Cc1ccccc1)NC(=O)[C@H](CC(N)=O)NC(=O)[C@H](CC(N)=O)NC(=O)[C@H](CO)NC(=O)[C@H](CO)NC(=O)[C@H](Cc1c[nH]cn1)NC(=O)[C@@H]1CCCN1C(=O)[C@H](CC(C)C)NC(=O)[C@H](Cc1ccccc1)NC(=O)[C@H](CC(N)=O)NC(=O)[C@H](C)NC(=O)[C@H](CC(C)C)NC(=O)[C@H](CCCNC(=N)N)NC(=O)[C@H](CCC(N)=O)NC(=O)[C@@H](NC(=O)[C@H](C)NC(=O)[C@@H]1CSSC[C@H](NC(=O)[C@H](CCCCN)NC(=O)[C@H](CCCNC(=N)N)NC(=O)CC[C@H](NC(=O)CCCCCCCCCCCCCCCCCCC(=O)O)C(=O)O)C(=O)N[C@@H](CC(N)=O)C(=O)N[C@@H]([C@@H](C)O)C(=O)N[C@@H](C)C(=O)N[C@@H]([C@@H](C)O)C(=O)N1)[C@@H](C)O)C(=O)N[C@@H](CC(C)C)C(=O)N1CCC[C@H]1C(=O)N1CCC[C@H]1C(=O)N[C@H](C(=O)N[C@@H](CC(N)=O)C(=O)N[C@H](C(=O)NCC(=O)N[C@@H](CO)C(=O)N[C@@H](CC(N)=O)C(=O)N[C@H](C(=O)N[C@@H](Cc1ccc(O)cc1)C(N)=O)[C@@H](C)O)C(C)C)[C@@H](C)O) [N-alpha-[(S)-4-Carboxy-4-(19-carboxynonadecanoylamino)butyryl]-Arg-[Pro17]-pramlintide]
7 | 80 | {C20 diacid-γGlu-AEEA}-RKCNTATCATQRLANFLAHSSNNFGPILPPTNVGSNTY-NH2 (disulfide 3-8; SMILES CC[C@H](C)[C@H](NC(=O)[C@@H]1CCCN1C(=O)CNC(=O)[C@H](Cc1ccccc1)NC(=O)[C@H](CC(N)=O)NC(=O)[C@H](CC(N)=O)NC(=O)[C@H](CO)NC(=O)[C@H](CO)NC(=O)[C@H](Cc1c[nH]cn1)NC(=O)[C@H](C)NC(=O)[C@H](CC(C)C)NC(=O)[C@H](Cc1ccccc1)NC(=O)[C@H](CC(N)=O)NC(=O)[C@H](C)NC(=O)[C@H](CC(C)C)NC(=O)[C@H](CCCNC(=N)N)NC(=O)[C@H](CCC(N)=O)NC(=O)[C@@H](NC(=O)[C@H](C)NC(=O)[C@@H]1CSSC[C@H](NC(=O)[C@H](CCCCN)NC(=O)[C@H](CCCNC(=N)N)NC(=O)COCCOCCNC(=O)CC[C@H](NC(=O)CCCCCCCCCCCCCCCCCCC(=O)O)C(=O)O)C(=O)N[C@@H](CC(N)=O)C(=O)N[C@@H]([C@@H](C)O)C(=O)N[C@@H](C)C(=O)N[C@@H]([C@@H](C)O)C(=O)N1)[C@@H](C)O)C(=O)N[C@@H](CC(C)C)C(=O)N1CCC[C@H]1C(=O)N1CCC[C@H]1C(=O)N[C@H](C(=O)N[C@@H](CC(N)=O)C(=O)N[C@H](C(=O)NCC(=O)N[C@@H](CO)C(=O)N[C@@H](CC(N)=O)C(=O)N[C@H](C(=O)N[C@@H](Cc1ccc(O)cc1)C(N)=O)[C@@H](C)O)C(C)C)[C@@H](C)O)
8 | 100 | {C20 diacid-γGlu-AEEA}-RKCNTATCATQRLANFLRHSSNNFGPILPPTNVGSNTY-NH2 (disulfide 3-8; SMILES CC[C@H](C)[C@H](NC(=O)[C@@H]1CCCN1C(=O)CNC(=O)[C@H](Cc1ccccc1)NC(=O)[C@H](CC(N)=O)NC(=O)[C@H](CC(N)=O)NC(=O)[C@H](CO)NC(=O)[C@H](CO)NC(=O)[C@H](Cc1c[nH]cn1)NC(=O)[C@H](CCCNC(=N)N)NC(=O)[C@H](CC(C)C)NC(=O)[C@H](Cc1ccccc1)NC(=O)[C@H](CC(N)=O)NC(=O)[C@H](C)NC(=O)[C@H](CC(C)C)NC(=O)[C@H](CCCNC(=N)N)NC(=O)[C@H](CCC(N)=O)NC(=O)[C@@H](NC(=O)[C@H](C)NC(=O)[C@@H]1CSSC[C@H](NC(=O)[C@H](CCCCN)NC(=O)[C@H](CCCNC(=N)N)NC(=O)COCCOCCNC(=O)CC[C@H](NC(=O)CCCCCCCCCCCCCCCCCCC(=O)O)C(=O)O)C(=O)N[C@@H](CC(N)=O)C(=O)N[C@@H]([C@@H](C)O)C(=O)N[C@@H](C)C(=O)N[C@@H]([C@@H](C)O)C(=O)N1)[C@@H](C)O)C(=O)N[C@@H](CC(C)C)C(=O)N1CCC[C@H]1C(=O)N1CCC[C@H]1C(=O)N[C@H](C(=O)N[C@@H](CC(N)=O)C(=O)N[C@H](C(=O)NCC(=O)N[C@@H](CO)C(=O)N[C@@H](CC(N)=O)C(=O)N[C@H](C(=O)N[C@@H](Cc1ccc(O)cc1)C(N)=O)[C@@H](C)O)C(C)C)[C@@H](C)O)
